Consider 94 variants from the supplement of paper PMC10567573.

The chains are these.
B1: VDR (parent)
chain: VTLELSQLSMLPHLADLVSYSIQK
B2: DLC1 (parent)
chain: RDAIEALCRRLNTLNKCAVMKLEI
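Further: lentivirally expressed fusions sorted by FACS into six bins by GFP to DsRed ratio, PSI derived from sequencing read proportions per bin multiplied by bin number.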

The first data set covers variants of B1. In words: protein stability index of a GFP-peptide fusion (GPS, HEK-293T) (PSI 1-6); higher = more stable. The note with it: c terminus: a fixed tail appended.
On to VTLELSQLSMLPHLRDLVSYSIQK [A15R], for which the protein stability index was determined as 2.64.

As to VTLELSQLSMLPHLQDLVSYSIQK [A15Q], the protein stability index was determined as 2.83.

On to VTLELSQLSMLPHVADLVSYSIQK [L14V], for which the protein stability index stood at 3.03.

Consider VTLELSQLSMLPHPADLVSYSIQK [L14P], for which the protein stability index came out at 1.85.

As for VTLELSQLSMLPHSADLVSYSIQK [L14S], the protein stability index was found to be 1.66.

As to VTLELSQLSMLPHCADLVSYSIQK [L14C], the protein stability index stood at 2.09.

For the variant VTLELSQLSMLPHYADLVSYSIQK [L14Y], the protein stability index was 3.47.

With VTLEASQLSMLPHLADLVSYSIQK [L5A], the protein stability index is 2.12.

Turning to VTLEQSQLSMLPHLADLVSYSIQK [L5Q], the protein stability index was determined as 2.01.

Take VTLENSQLSMLPHLADLVSYSIQK [L5N]: the protein stability index amounted to 1.93.

Take VTLEGSQLSMLPHLADLVSYSIQK [L5G]: the protein stability index came to 2.07.

VTLERSQLSMLPHLADLVSYSIQK [L5R]: the protein stability index is 2.5.

Take VTLEYSQLSMLPHLADLVSYSIQK [L5Y]: the protein stability index turned out to be 3.55.

Take VTLELSQLSMLPHLADLVSDSIQK [Y20D]: the protein stability index was 1.35.

With VTLELSQLSMLPHLADLVSFSIQK [Y20F], the protein stability index came out at 2.41.

Take VTLELSQLSMLPHLADLVSKSIQK [Y20K]: the protein stability index turned out to be 2.33.

VTLELSQLSMLPHLARLVSYSIQK [D16R]: the protein stability index came out at 3.75.

In the case of VTLELSQLSMLPHLAALVSYSIQK [D16A], the protein stability index is 3.1.

As for VTLELSQLSMLPHLALLVSYSIQK [D16L], the protein stability index was determined as 3.77.

Take VTLELSQLSMLPHLASLVSYSIQK [D16S]: the protein stability index stood at 2.82.

Regarding VTLELSQLSMLPHLAQLVSYSIQK [D16Q], the protein stability index amounted to 3.98.

VTLELSQLSMLLHLADLVSYSIQK [P12L]: the protein stability index was 3.04.

As for VTLELSQLSMLAHLADLVSYSIQK [P12A], the protein stability index was determined as 2.4.

Consider VTLELSQLSMLMHLADLVSYSIQK [P12M], for which the protein stability index worked out at 2.51.

With VTLELSQLSMLCHLADLVSYSIQK [P12C], the protein stability index came to 3.89.

In the case of VTLELSQLSMLGHLADLVSYSIQK [P12G], the protein stability index is 2.02.

Regarding VTLELSQLSMLPHLADLVGYSIQK [S19G], the protein stability index is 4.13.

With VTLELSQLSMLPHLADLVFYSIQK [S19F], the protein stability index was determined as 3.49.

For VTLELSQLSMLPHLADLVWYSIQK [S19W], the protein stability index was determined as 3.07.

In the case of VTLELSQLSMLPHLADLVEYSIQK [S19E], the protein stability index worked out at 2.05.

As for VTLELSQLSMLPHLADLVLYSIQK [S19L], the protein stability index came out at 4.2.

Take VTLELSQRSMLPHLADLVSYSIQK [L8R]: the protein stability index is 2.25.

In the case of VTLELSQDSMLPHLADLVSYSIQK [L8D], the protein stability index stood at 2.91.

Consider VTLELSQTSMLPHLADLVSYSIQK [L8T], for which the protein stability index came to 2.85.

With VTLELSQKSMLPHLADLVSYSIQK [L8K], the protein stability index came to 3.33.

Regarding VTLELSQQSMLPHLADLVSYSIQK [L8Q], the protein stability index was 1.54.

A further data set covers variants of B2. The description is as above. Conditions: c terminus: a fixed tail appended.
On to RDAIEALRRRLNTLNKCAVMKLEI [C8R], for which the protein stability index stood at 1.41.

RDAIEALKRRLNTLNKCAVMKLEI [C8K]: the protein stability index was found to be 1.84.

With RDAIEALTRRLNTLNKCAVMKLEI [C8T], the protein stability index is 1.46.

As to RDAIEALHRRLNTLNKCAVMKLEI [C8H], the protein stability index is 2.7.

On to RDAIEALCRRLNTLNKCAVQKLEI [M20Q], for which the protein stability index was found to be 1.45.

Take RDAIEALCRRLNTLNKCAVAKLEI [M20A]: the protein stability index came to 1.01.

In the case of RDAIEALCRRLNTLNKCADMKLEI [V19D], the protein stability index was 2.58.

In the case of RDAIEALCQRLNTLNKCAVMKLEI [R9Q], the protein stability index stood at 4.01.

With RDAIEALCVRLNTLNKCAVMKLEI [R9V], the protein stability index stood at 2.69.

RDAIEALCFRLNTLNKCAVMKLEI [R9F]: the protein stability index stood at 2.45.

Turning to RDAIEALCGRLNTLNKCAVMKLEI [R9G], the protein stability index came to 1.83.

On to RDAIEALCRRLRTLNKCAVMKLEI [N12R], for which the protein stability index came out at 1.79.

For RDAIEALCRRLLTLNKCAVMKLEI [N12L], the protein stability index amounted to 2.99.

In the case of RDAIEALCRRLYTLNKCAVMKLEI [N12Y], the protein stability index came to 3.36.

As to RDQIEALCRRLNTLNKCAVMKLEI [A3Q], the protein stability index came to 2.95.

As to RDGIEALCRRLNTLNKCAVMKLEI [A3G], the protein stability index turned out to be 2.33.

For RDAIEGLCRRLNTLNKCAVMKLEI [A6G], the protein stability index turned out to be 3.12.

As to RDAIEELCRRLNTLNKCAVMKLEI [A6E], the protein stability index came to 1.64.

Turning to RDAIEFLCRRLNTLNKCAVMKLEI [A6F], the protein stability index worked out at 3.71.

Regarding RDAIEALCRRLNTLNKCAVMLLEI [K21L], the protein stability index is 2.53.

On to RDAIEALCRRLNTLNKCAVMCLEI [K21C], for which the protein stability index worked out at 1.39.

On to HDAIEALCRRLNTLNKCAVMKLEI [R1H], for which the protein stability index turned out to be 3.12.

As to SDAIEALCRRLNTLNKCAVMKLEI [R1S], the protein stability index was found to be 3.94.

PDAIEALCRRLNTLNKCAVMKLEI [R1P]: the protein stability index is 2.85.

Regarding CDAIEALCRRLNTLNKCAVMKLEI [R1C], the protein stability index was 2.52.

Regarding RDAIEAVCRRLNTLNKCAVMKLEI [L7V], the protein stability index worked out at 2.36.

In the case of RDAIEATCRRLNTLNKCAVMKLEI [L7T], the protein stability index is 2.46.

On to RDAIEACCRRLNTLNKCAVMKLEI [L7C], for which the protein stability index was determined as 1.97.

In the case of RDAIEALCRRPNTLNKCAVMKLEI [L11P], the protein stability index is 2.84.

Consider RDAIEALCRRRNTLNKCAVMKLEI [L11R], for which the protein stability index came to 1.89.

As to RDAIEALCRRQNTLNKCAVMKLEI [L11Q], the protein stability index worked out at 2.56.

As to RDAIEALCRRLNTLNKCAVMKLEH [I24H], the protein stability index amounted to 1.73.

In the case of RDAIEALCRRLNTLNKCAVMKLEL [I24L], the protein stability index amounted to 2.75.

Turning to RDAIEALCRRLNTLNKCAVMKLEC [I24C], the protein stability index was 3.03.

Regarding RDAIEALCRRLNTLNKCAVMKLEW [I24W], the protein stability index stood at 1.66.

With RDAICALCRRLNTLNKCAVMKLEI [E5C], the protein stability index came out at 2.39.

RDAIPALCRRLNTLNKCAVMKLEI [E5P]: the protein stability index turned out to be 3.06.

On to RDAIEALCRRLNTLNKPAVMKLEI [C17P], for which the protein stability index came to 1.07.

Regarding RDAIEALCRRLNTLNKIAVMKLEI [C17I], the protein stability index is 3.57.

RDAIEALCRRLNTANKCAVMKLEI [L14A]: the protein stability index was found to be 1.68.

Take RDAIEALCRRLNTPNKCAVMKLEI [L14P]: the protein stability index was 2.09.

Take RDAIEALCRRLNTCNKCAVMKLEI [L14C]: the protein stability index was 2.35.

For RDANEALCRRLNTLNKCAVMKLEI [I4N], the protein stability index stood at 2.4.

With RDAKEALCRRLNTLNKCAVMKLEI [I4K], the protein stability index worked out at 2.37.

In the case of RDAAEALCRRLNTLNKCAVMKLEI [I4A], the protein stability index was 1.76.

Turning to RDAIEALCRRLNTLNKCWVMKLEI [A18W], the protein stability index stood at 2.66.

Turning to RDAIEALCRNLNTLNKCAVMKLEI [R10N], the protein stability index was 4.43.

Turning to RAAIEALCRRLNTLNKCAVMKLEI [D2A], the protein stability index was 2.4.

With RDAIEALCRRLNTLNGCAVMKLEI [K16G], the protein stability index turned out to be 3.19.

On to RDAIEALCRRLNTLNWCAVMKLEI [K16W], for which the protein stability index came to 2.25.

Take RDAIEALCRRLNTLNKCAVMKLFI [E23F]: the protein stability index turned out to be 2.3.

For RDAIEALCRRLNTLNKCAVMKLHI [E23H], the protein stability index was found to be 2.39.

For RDAIEALCRRLNTLNKCAVMKLII [E23I], the protein stability index is 1.47.

For RDAIEALCRRLNTLNKCAVMKLQI [E23Q], the protein stability index turned out to be 4.6.

In the case of RDAIEALCRRLNCLNKCAVMKLEI [T13C], the protein stability index was found to be 2.26.

Consider RDAIEALCRRLNELNKCAVMKLEI [T13E], for which the protein stability index amounted to 1.7.

For RDAIEALCRRLNTLGKCAVMKLEI [N15G], the protein stability index is 2.33.

For the variant RDAIEALCRRLNTLTKCAVMKLEI [N15T], the protein stability index turned out to be 1.98.
